Results taken from the RNAGym collection of RNA variant scans (doi:10.1101/gr.219683.116).

B1: mRNA-splicing (parent)
chain: AGUUGCUGCUGGGAGCUCCAGCACAGUGAAAUGGACAGAAGGGCAGAGCAA

Variants of: B1
Assay: exon inclusion enrichment index; higher = more inclusion; WT1 exon 5 minigene, HEK293

Row | Variant | exon inclusion enrichment index
1 | G5C C6A U7C G8A C9A U10A | 0.239
2 | G5C C6A U7A G8C U10A | 0.514
3 | G5A U7C G8A U10C U27C G28A | 2.31
4 | G5A U7C G8A U10C U27C G28C | 2.7
5 | G5A U7C G8A U10C U27C G28U | 1.74
6 | G5C C6A G8C U10A | 0.77
7 | G5A U7C G8A U10C G41A G42C | 2.53
8 | G5A U7C G8A U10C G41A G42A | 1.99
9 | G5A U7C G8A U10C G41A G42U | 1.8
10 | G5A U7C G8A U10C G48C | 2.4
11 | G5A U7C G8A U10C G48A | 2.99
12 | G5A U7C G8A U10C G48U | 2.83
13 | G5A U7C G8A U10C U32C G33U | 1.75
14 | G5A U7C G8A U10C U32C G33A | 1.18
15 | G5A U7C G8A U10C U32C G33C | 3.24
16 | G5A U7C G8A U10C G41C | 3.34
17 | G5A U7C G8A U10C G41A | 1.44
18 | G5A U7C G8A U10C G41U | 2.09
19 | G5A U7C G8U C9A U10C | 1.23
20 | G5C C6A U7C C9U U10A | 0.0237
21 | G5C C6A U7A G8C C9U U10C | 2.04

Row | Variant | exon inclusion enrichment index
22 | G5C C6A U7C G8A U10A | 0.12
23 | G5A U7C G8A U10C U17C C18G | 2.38
24 | G5A U7C G8A U10C U17C C18U | 1.85
25 | G5A U7C G8A U10C U17C C18A | 1.54
26 | G5A U7C G8A U10C G46U | 1.6
27 | G5A U7C G8A U10C G46C | 2.03
28 | G5A U7C G8A U10C G46A | 2.32
29 | G5A U7C G8A U10C U27A G28A | 2.27
30 | G5A U7C G8A U10C U27A G28C | 2.42
31 | G5A U7C G8A U10C U27A G28U | 0.834
32 | G5C C6A U7C C9G U10A | 1.72
33 | G5A U7G G8U C9A | 0.583
34 | G5A U7C G8C C9U U10C | 1.27
35 | G5A U7C G8A U10C G42C G43U | 3.18
36 | G5A U7C G8A U10C G42C G43A | 3
37 | G5A U7C G8A U10C G42C G43C | 3.5
38 | G5C C6A G8U C9U | 0.42
39 | G5A U7C G8A U10C G38U A39U | 0.126
40 | G5A U7C G8A U10C G38U A39C | 1.83
41 | G5A U7C G8A U10C G38U A39G | 1.15
42 | G5A U7C G8A U10C G43U C44A | 0.058

Row | Variant | exon inclusion enrichment index
43 | G5A U7C G8A U10C G43U C44U | 0.735
44 | G5A U7C G8A U10C G43U C44G | 0.5
45 | G5A U7C G8A U10C G38C A39U | 0.229
46 | G5A U7C G8A U10C G38C A39G | 2.15
47 | G5A U7C G8A U10C G38C A39C | 2.25
48 | G5A U7C G8A U10C G41U G42C | 2.97
49 | G5A U7C G8A U10C G41U G42A | 0.909
50 | G5A U7C G8A U10C G41U G42U | 1.9
51 | G5A U7C G8A U10C G46U A47C | 2.94
52 | G5A U7C G8A U10C G46U A47G | 1.85
53 | G5A U7C G8A U10C G46U A47U | 2.48
54 | G5C C6A G8C C9U U10C | 2.4
55 | G5A U7C G8A U10C G34C A35U | 0.506
56 | G5A U7C G8A U10C G34C A35G | 1.69
57 | G5A U7C G8A U10C G34C A35C | 0.149
58 | G5A U7C G8A U10C U32G G33C | 2.16
59 | G5A U7C G8A U10C U32G G33U | 0.923
60 | G5A U7C G8A U10C U32G G33A | 0.707
61 | G5C C6A G8U U10A | 0.0451
62 | G5A U7G G8U U10C | 2.36
63 | G5A U7C G8A U10C G42C | 3.71

Row | Variant | exon inclusion enrichment index
64 | G5A U7C G8A U10C G42U | 2.55
65 | G5A U7C G8A U10C G42A | 3.71
66 | G5C C6A U7A U10C | 3.35
67 | G5C C6A U7A U10A | 0.407
68 | G5A U7C G8C C9A U10C | 1.56
69 | G5A U7C G8C U10C | 1.39
70 | G5A U7C G8A U10C U17G C18A | 2.15
71 | G5A U7C G8A U10C U17G C18G | 1.96
72 | G5A U7C G8A U10C U17G C18U | 1.66
73 | G5A U7C G8A U10C G43A C44G | 4.11
74 | G5A U7C G8A U10C G43A C44A | 3.99
75 | G5A U7C G8A U10C G43A C44U | 2.57
76 | G5A U10C | 2.01
77 | G5C C6A U7C G8A U10A A14C | 0.0603
78 | G5A U7C G8A U10C G42A G43U | 4.5
79 | G5A U7C G8A U10C G42A G43C | 4.19
80 | G5A U7C G8A U10C G42A G43A | 4.61
81 | G5C C6A U7A G8A U10A | 0.0993
82 | G5A U7C G8A U10C G34U A35C | 0.726
83 | G5A U7C G8A U10C G34U A35U | 0.441
84 | G5A U7C G8A U10C G34U A35G | 0.753
